We go through one substance from publication PMC2114938.

The assay concerns the target actin filaments (UniProt P68139). Nature of the assay: immunogold electron microscopy.

In turn, “Cap Z(36/32) (from UniProt P13127 1-286; P14315 1-277) (complex)” had a percent of filaments with gold label at the barbed end (immune) of 17.4%.
